Experimental data reported in publication PMC3102659.

Columns and labels:
[1] = target: human blood coagulation factor X (FX) (human)
[2] = target: human blood coagulation factor X (FX) (human); test: SPR; biotinylated hypersulfated heparin (HS) on a streptavidin CM4 chip, BIAcore3000; hexon or virions injected alone or mixed with FX or FXGL; read-out is the FX-bridged binding to HS; HBS (10 mM HEPES, 150 mM NaCl, pH 7.4) with 3 mM CaCl2, 5 µl/min
[3] = target: human blood coagulation factor X (FX) (human); remark: listed apart in the source
[4] = target: immobilized HS (hypersulfated heparin), bridged by FX (m1); test: SPR; conditions: virion + FX at 8 µg/ml (FXmax); HS immobilized on chip; read at end of injection (~285 s); parent: est. 2900; read off a plot
[5] = target: TTAT mutant fiber of HAdV5 (KKTK motif of the shaft mutated) (human adenovirus serotype 5) (UniProt P11818); test: not stated; data not shown: folding of TTAT mutant fibers as trimers

| Substance | cell-bound virions on CHO-K1 cells (qPCR of viral genomes), MOI 5,000, 1 h at 4°C, increase with FX 8 µg/ml over no FX [1] [fold] | response [4] [RU] | also measured |
| --- | --- | --- | --- |
| HAdV5F35 virion (serotype 35 fiber-pseudotyped HAdV5 vector) (from UniProt P04133 1-952; P12538 1-571) (complex) | 10 | – | copies of FX per virion at maximum FX-mediated binding to HS (copies of FX per virion) [2]: 480 |
| HAdV5F^TTAT virion (HAdV5 vector mutated in the KKTK motif of the fiber shaft) (from UniProt P04133 1-952; P12538 1-571; P11818 1-581) (complex) | – | – | enhancement of transduction efficiency of CHO-K1 cells, MOI 2,500, increasing doses of FX up to FXmax (8 µg/ml) [3]: 65 fold |
| HAdV5wt virion (replication-deficient HAdV5 vector with nonmodified capsid) (from UniProt P04133 1-952; P12538 1-571; P11818 1-581) (complex) | 5 to 6 | – | – |
| HAdV5wt virion (replication-deficient HAdV5 vector with nonmodified capsid) (from UniProt P04133;P12538;P11818) fiber:K91T; fiber:K92T; fiber:T93A; fiber:K94T | – | 2400 | – |
| HAdV5wt virion (replication-deficient HAdV5 vector with nonmodified capsid) (from UniProt P04133;P12538;P11818) penton base:R340E | – | 2500 | – |
| TTAT mutant fiber of HAdV5 (KKTK motif of the shaft mutated) (from UniProt P11818 1-581) (natural protein) | – | – | stoichiometry N [5]: 3 |
